Measured values published in patent publication US20240216557A1, “RADIOLIGAND BINDING TO ANTI-DLL3 ANTIBODIES FOR PRETARGETED PET IMAGING AND THERAPEUTIC USES THEREOF” (Memorial Sloan-Kettering Cancer Center, priority 2021, published 2024).
Positions count from the first letter of the chain named.

B1: E23: anti-DLL3 antibody, VH SEQ ID NO: 119, VL SEQ ID NO: 120 (antibody, V domains shown)
VH: QVQLVQSGAEVRKPGASVKVSCKASGYTFTGYYMHWVRQAPGQGLEWMGWINSYSGGANYAQKFQDRVTMTRDTSVSTASMELSRLRSDDTAVYYCARDGSGWYGSYFDFWGQGTLVTVSS
VL: DIVMTQTPLSSPVTLGQPASISCRSSQSLVHSDGNTYLSWLQQRPGQPPRLLIYKISNRFSGVPDRFSGSGAGTDFTLKISRVEAEDVGFYYCIQTTQFPLTFGGGTKVEIK
B2: G16: anti-DLL3 antibody, VH SEQ ID NO: 157, VL SEQ ID NO: 158 (antibody, V domains shown)
VH: QVQLVQSGAEVKKPGASVQVSCKASGYTFTSYYMHWVRQAPGQGLEWMGIINPSGGSTSYAQKFQGRVTMTRDTSTSTVYMELSSLRSEDTAVYYCARQGGAQWLVLAFDIWGQGTMVTVSS
VL: EIVLTQSPGTLSLSPGERATLSCRASQSVSSYLAWYQQKPGQAPRLLIYGASSRATGIPDRFSGGGSGTDFTLTISRLEPEDFAVYYCQQYGSSPYTFGQGTKLEIK
B3: F9: anti-DLL3 antibody, VH SEQ ID NO: 126, VL SEQ ID NO: 127 (antibody, V domains shown)
VH: B2 VH
VL: B2 VL with A43P, G92D
B4: A18: anti-DLL3 antibody, VH SEQ ID NO: 34, VL SEQ ID NO: 35 (antibody, V domains shown)
VH: QVTLRESGPALVKSTQTLTLTCTFSGFSLSTSGMCVSWIRQTPGKALEWLALIDWDDNKYYSTSLKTRLIISKDTSKNQVVLTMTNMEPVDTATYYCARIRGYSGSYDAFDIWGQGTMVTVSS
VL: DIVMTQSPLSLPVTPGEPASISCRSSQSLLHSNGYNYLDWYLQKPGQSPHILLYLGSNRAPGVPDRFSGSGSGTDFTLKISRVEAEDVGVYYCMQALQTPFTFGPGTKVDIK
B5: B16-v2: anti-DLL3 antibody, VH SEQ ID NO: 108, VL SEQ ID NO: 113 (antibody, V domains shown)
VH: QVQLVQSGAEVKKPGASVKVSCKASGYTFTSYYMHWVRQAPGQGLEWMGIIDPSGGSTSYAQKFQGRVTMTRDTSTNTVYMDLSSLRSEDTAVYYCARQGRYVGSYLDYWGQGTLVTVSS
VL: DIQMTQSPSSLSASVGDRVTITCRASQGISNYLAWFQQKPGKAPKSVIYAASSLQSGVPSKFSGSGSGTDFTLTISSMQPEDFATYYCQQYNSYPYTFGQGTKLEIK
B6: J8: anti-DLL3 antibody, VH SEQ ID NO: 7, VL SEQ ID NO: 8 (antibody, V domains shown)
VH: QVHLVQSGAEVKKPGASVKVSCKASGYTFTIYYIHWVRQAPGQGLEWMGIINPSGGSTSYAQKFQGRVTMTRDTSTSTVYMELSSLRSEDTAVYYCSGNDYVDYVTTDYYGMDVWGQGTTVTVSS
VL: B5 VL with V47L, M78L, Y94S
B7: E9: anti-DLL3 antibody, VH SEQ ID NO: 42, VL SEQ ID NO: 43 (antibody, V domains shown)
VH: QVQLVQSGAEVKKPGASVKVSCKASGYTFTSYYMHWVRQAPGQGLEWMGVINSSGGSTSYAQKFQGRVTMTRDTSTSTVYMDLSSLRSEDTAVYYCARGYCTNGVYYDEDFDYWGQGTLVTVSS
VL: B5 VL with N31H, K45T, V47L, M78L, Y96L, Q100G, L104V
B8: O24: anti-DLL3 antibody, VH SEQ ID NO: 66, VL SEQ ID NO: 67 (antibody, V domains shown)
VH: QVQLVQSGAEVKKPGASVKVSCKASGYTFTSYYLHWVRQAPGHGLEWMAIINPSGGSTSYAQKFLGRVTMTRDTSTNTVYMELSSLRSEDTAVYYCARERQQLDYYYFAMDVWGQGTTVTVSS
VL: B5 VL with V47L, M78L, Y96P, L104V
B9: B22: anti-DLL3 antibody, VH SEQ ID NO: 141, VL SEQ ID NO: 142 (antibody, V domains shown)
VH: EVQLVESGGGLVQPGGSLRLSCAASGFTFNNFWMSWVRQAPGKGLEWVANIKQDGSEKYYVDSVKGRFTISRDNAKNSLYLQMNSLRAEDTAVYYCARESYFDLWGRGTLVTVSS
VL: QAVVTQESALTTSPGETVTLTCRSSTGAVTTSNYANWVQEKPDHLFTGLIGGTNNRAPGVPARFSGSLIGDKAALTITGAQTEDEAIYFCALWYSNRWVFGGGTKLTVL
B10: L22: anti-DLL3 antibody, VH SEQ ID NO: 17, VL SEQ ID NO: 18 (antibody, V domains shown)
VH: EVQLLESGGGLVQPGGSLRLSCAASGFTFSSYAMGWVRQTPGKGLEWVSTISGRGGDTYYADSVKGRFTISRDNSKNTLYLQMNSLRAEDTAIYYCAKERGLGFDYWGQGTLVTVSS
VL: DIVMTQTPLSLPVTPGEPASISCRSSQSLLDSDDGNTYLDWYLQKPGQSPQLLIYTLSYRASGVPDRFSGSGSGTDFTLKISRVEAEDVGVYYCMQHLEFPLTFGGGTKVEIK
B11: SC16: DLL3-targeting SC16 antibody component of Rova-T (antibody, chains of the INN, looked up, V domains shown)
VH: QVQLVQSGAEVKKPGASVKVSCKASGYTFTNYGMNWVRQAPGQGLEWMGWINTYTGEPTYADDFKGRVTMTTDTSTSTAYMELRSLRSDDTAVYYCARIGDSSPSDYWGQGTLVTVSS
VL: EIVMTQSPATLSVSPGERATLSCKASQSVSNDVVWYQQKPGQAPRLLIYYASNRYTGIPARFSGSGSGTEFTLTISSLQSEDFAVYYCQQDYTSPWTFGQGTKLEIK
B12: [^89Zr]Zr-DFO-SC16 (conjugate, chains of the INN, looked up)
VH: B11 VH
VL: B11 VL
modifications: DFO chelator, 89Zr label

biological target: T1, Histidine-tagged DLL3 antigen (DLL3-His) (Homo sapiens, UniProt Q9NYJ7); assay: Pairwise epitope binning on Carterra array SPR; conditions: pairwise competition for binding to DLL3-His, antibodies immobilized on HC200M chip
T1 construct: corresponding to amino acids Ala27-Ala479 with a C-terminal 6×His tag; made in house; host or cells: HEK293T cells
T1 sequence (Q9NYJ7 27-479): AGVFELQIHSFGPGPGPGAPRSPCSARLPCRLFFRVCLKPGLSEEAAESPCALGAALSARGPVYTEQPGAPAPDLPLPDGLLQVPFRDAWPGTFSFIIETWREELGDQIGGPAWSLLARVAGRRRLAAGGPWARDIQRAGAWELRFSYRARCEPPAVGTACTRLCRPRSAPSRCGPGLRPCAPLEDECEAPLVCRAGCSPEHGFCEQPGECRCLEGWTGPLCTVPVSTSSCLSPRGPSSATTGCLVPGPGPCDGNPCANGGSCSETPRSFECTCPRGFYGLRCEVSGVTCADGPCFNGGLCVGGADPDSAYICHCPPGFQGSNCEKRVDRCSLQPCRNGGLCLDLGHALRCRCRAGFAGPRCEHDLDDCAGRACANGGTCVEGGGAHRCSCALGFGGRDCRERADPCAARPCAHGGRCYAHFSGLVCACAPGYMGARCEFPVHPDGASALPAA
Description: The panel of purified anti-DLL3 monoclonal antibodies and the reference monoclonal antibody were subjected to pairwise epitope binning on a Carterra® array surface plasmon resonance (SPR) assay platform (Carterra*Inc., Salt Lake City UT) where each monoclonal antibody was tested for the capture of Histidine-tagged DLL3 antigen (DLL3-His), and also for competing with every other antibody in the panel for the binding to DLL3-His. The antibodies were immobilized on a HC200M chip (ligand) through standard amine coupling techniques by the print array method. Then in each cycle antigen was injected across the entire array followed by a single antibody (analyte). At the end of each cycle the surface was regenerated to remove antigen and analyte before a new cycle started.

Molecule	Epitope Bin
B1	7
B2	4
B3	4
B4	6
B5	4
B6	4
B7	4
B8	4
B9	2
B10	8

biological target: T2, hDLL1 (Homo sapiens, UniProt O00548); assay: ELISA specificity, hDLL1; type: binding; conditions: not given
T2 sequence (O00548 18-723): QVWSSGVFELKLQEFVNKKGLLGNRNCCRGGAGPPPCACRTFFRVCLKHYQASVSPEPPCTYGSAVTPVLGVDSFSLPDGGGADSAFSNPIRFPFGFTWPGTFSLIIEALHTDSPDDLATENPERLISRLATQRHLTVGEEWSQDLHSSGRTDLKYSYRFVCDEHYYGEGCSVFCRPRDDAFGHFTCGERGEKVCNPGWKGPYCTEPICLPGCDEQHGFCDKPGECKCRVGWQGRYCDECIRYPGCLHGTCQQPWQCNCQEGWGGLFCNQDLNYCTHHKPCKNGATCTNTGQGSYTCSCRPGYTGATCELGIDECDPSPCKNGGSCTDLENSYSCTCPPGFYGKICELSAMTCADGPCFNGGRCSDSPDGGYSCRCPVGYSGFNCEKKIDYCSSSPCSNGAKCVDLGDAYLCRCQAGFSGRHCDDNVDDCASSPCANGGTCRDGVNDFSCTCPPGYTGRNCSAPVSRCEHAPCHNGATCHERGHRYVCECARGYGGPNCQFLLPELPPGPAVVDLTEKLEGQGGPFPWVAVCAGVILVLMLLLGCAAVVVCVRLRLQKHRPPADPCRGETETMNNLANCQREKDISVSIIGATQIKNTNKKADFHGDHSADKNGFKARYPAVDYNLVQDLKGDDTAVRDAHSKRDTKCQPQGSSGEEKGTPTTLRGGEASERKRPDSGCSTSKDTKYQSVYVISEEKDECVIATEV
Description: Next, affinity, binding domain, and specificity of antibodies including scFv designated as J8, B2, and L22 were analyzed. Affinity, binding domain and specificity of novel human anti-DLL3 antibodies are depicted in Table 30 below.

Molecule	ELISA hDLL1
B6	0.095
B10	0.105

tested on: SCLC cells; assay: not given; conditions: cited from earlier work

Molecule	internalization by SCLC cells upon binding to DLL3
B11	rapidly internalized

tested on: SCLC xenografts; assay: not given; conditions: mouse, in vivo, sc; cited from earlier work

Molecule	time post-injection at which optimal imaging was achieved
B12	≥ 120
